T1: human GM-CSFRα, full length on cells (human, UniProt P15509 23-400)
T1 sequence: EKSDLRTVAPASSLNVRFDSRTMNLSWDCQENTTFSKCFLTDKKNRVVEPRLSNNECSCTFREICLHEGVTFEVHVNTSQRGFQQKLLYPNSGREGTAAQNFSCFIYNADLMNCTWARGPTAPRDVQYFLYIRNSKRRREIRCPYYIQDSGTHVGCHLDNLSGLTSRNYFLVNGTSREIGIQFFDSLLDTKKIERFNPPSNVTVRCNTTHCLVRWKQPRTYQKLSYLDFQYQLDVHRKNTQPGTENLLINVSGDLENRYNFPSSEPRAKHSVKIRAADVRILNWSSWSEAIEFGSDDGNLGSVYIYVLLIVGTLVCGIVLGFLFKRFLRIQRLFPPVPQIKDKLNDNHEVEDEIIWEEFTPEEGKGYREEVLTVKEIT


Target: T1, human GM-CSFRα, full length on cells
Test: cell-based or functional assay

IC50, TF-1 cell proliferation [µg/mL] | Binder
0.235 | E35-scFv LS31L (scFv, V domains shown) VH: QMQLVQSGAEVKKPGASVKVSCKVSGYTLTELSIHWVRQAPGKGLEWMGGFDPEDGETIYAQKFQGRVTMTGDTSTDTAYLELSSLRSEDTALYYCATGRYTSLATTYGFDYWGQGTLVTVSS VL: EIVMTQSPATLSLSPGERATLSCRASQSVSLYLAWYQQKPGQAPRLLIYGASSRATGIPDRFSGSGSGTDFTLTISRLEPEDFAVYYCQQYDNWPYTFGQGTKLEIK
0.067 | E35-scFv LS28L (scFv, V domains shown) VH: QMQLVQSGAEVKKPGASVKVSCKVSGYTLTELSIHWVRQAPGKGLEWMGGFDPEDGETIYAQKFQGRVTMTGDTSTDTAYLELSSLRSEDTALYYCATGRYTSLATTYGFDYWGQGTLVTVSS VL: EIVMTQSPATLSLSPGERATLSCRASQLVSSYLAWYQQKPGQAPRLLIYGASSRATGIPDRFSGSGSGTDFTLTISRLEPEDFAVYYCQQYDNWPYTFGQGTKLEIK
0.681 | E35-scFv LS31I (scFv, V domains shown) VH: QMQLVQSGAEVKKPGASVKVSCKVSGYTLTELSIHWVRQAPGKGLEWMGGFDPEDGETIYAQKFQGRVTMTGDTSTDTAYLELSSLRSEDTALYYCATGRYTSLATTYGFDYWGQGTLVTVSS VL: EIVMTQSPATLSLSPGERATLSCRASQSVSIYLAWYQQKPGQAPRLLIYGASSRATGIPDRFSGSGSGTDFTLTISRLEPEDFAVYYCQQYDNWPYTFGQGTKLEIK
0.832 | E35-scFv LS31E (scFv, V domains shown) VH: QMQLVQSGAEVKKPGASVKVSCKVSGYTLTELSIHWVRQAPGKGLEWMGGFDPEDGETIYAQKFQGRVTMTGDTSTDTAYLELSSLRSEDTALYYCATGRYTSLATTYGFDYWGQGTLVTVSS VL: EIVMTQSPATLSLSPGERATLSCRASQSVSEYLAWYQQKPGQAPRLLIYGASSRATGIPDRFSGSGSGTDFTLTISRLEPEDFAVYYCQQYDNWPYTFGQGTKLEIK
0.116 | E35-scFv LS28A (scFv, V domains shown) VH: QMQLVQSGAEVKKPGASVKVSCKVSGYTLTELSIHWVRQAPGKGLEWMGGFDPEDGETIYAQKFQGRVTMTGDTSTDTAYLELSSLRSEDTALYYCATGRYTSLATTYGFDYWGQGTLVTVSS VL: EIVMTQSPATLSLSPGERATLSCRASQAVSSYLAWYQQKPGQAPRLLIYGASSRATGIPDRFSGSGSGTDFTLTISRLEPEDFAVYYCQQYDNWPYTFGQGTKLEIK
0.088 | E35-scFv LS28T (scFv, V domains shown) VH: QMQLVQSGAEVKKPGASVKVSCKVSGYTLTELSIHWVRQAPGKGLEWMGGFDPEDGETIYAQKFQGRVTMTGDTSTDTAYLELSSLRSEDTALYYCATGRYTSLATTYGFDYWGQGTLVTVSS VL: EIVMTQSPATLSLSPGERATLSCRASQTVSSYLAWYQQKPGQAPRLLIYGASSRATGIPDRFSGSGSGTDFTLTISRLEPEDFAVYYCQQYDNWPYTFGQGTKLEIK
0.089 | E35-scFv LS28P (scFv, V domains shown) VH: QMQLVQSGAEVKKPGASVKVSCKVSGYTLTELSIHWVRQAPGKGLEWMGGFDPEDGETIYAQKFQGRVTMTGDTSTDTAYLELSSLRSEDTALYYCATGRYTSLATTYGFDYWGQGTLVTVSS VL: EIVMTQSPATLSLSPGERATLSCRASQPVSSYLAWYQQKPGQAPRLLIYGASSRATGIPDRFSGSGSGTDFTLTISRLEPEDFAVYYCQQYDNWPYTFGQGTKLEIK
0.1 | E35-scFv LS28F (scFv, V domains shown) VH: QMQLVQSGAEVKKPGASVKVSCKVSGYTLTELSIHWVRQAPGKGLEWMGGFDPEDGETIYAQKFQGRVTMTGDTSTDTAYLELSSLRSEDTALYYCATGRYTSLATTYGFDYWGQGTLVTVSS VL: EIVMTQSPATLSLSPGERATLSCRASQFVSSYLAWYQQKPGQAPRLLIYGASSRATGIPDRFSGSGSGTDFTLTISRLEPEDFAVYYCQQYDNWPYTFGQGTKLEIK
1.34 | E35-scFv LS31D (scFv, V domains shown) VH: QMQLVQSGAEVKKPGASVKVSCKVSGYTLTELSIHWVRQAPGKGLEWMGGFDPEDGETIYAQKFQGRVTMTGDTSTDTAYLELSSLRSEDTALYYCATGRYTSLATTYGFDYWGQGTLVTVSS VL: EIVMTQSPATLSLSPGERATLSCRASQSVSDYLAWYQQKPGQAPRLLIYGASSRATGIPDRFSGSGSGTDFTLTISRLEPEDFAVYYCQQYDNWPYTFGQGTKLEIK
0.649 | E35-scFv LS31W (scFv, V domains shown) VH: QMQLVQSGAEVKKPGASVKVSCKVSGYTLTELSIHWVRQAPGKGLEWMGGFDPEDGETIYAQKFQGRVTMTGDTSTDTAYLELSSLRSEDTALYYCATGRYTSLATTYGFDYWGQGTLVTVSS VL: EIVMTQSPATLSLSPGERATLSCRASQSVSWYLAWYQQKPGQAPRLLIYGASSRATGIPDRFSGSGSGTDFTLTISRLEPEDFAVYYCQQYDNWPYTFGQGTKLEIK
0.111 | E35-scFv LS28E (scFv, V domains shown) VH: QMQLVQSGAEVKKPGASVKVSCKVSGYTLTELSIHWVRQAPGKGLEWMGGFDPEDGETIYAQKFQGRVTMTGDTSTDTAYLELSSLRSEDTALYYCATGRYTSLATTYGFDYWGQGTLVTVSS VL: EIVMTQSPATLSLSPGERATLSCRASQEVSSYLAWYQQKPGQAPRLLIYGASSRATGIPDRFSGSGSGTDFTLTISRLEPEDFAVYYCQQYDNWPYTFGQGTKLEIK
0.154 | E35-scFv LS28Q (scFv, V domains shown) VH: QMQLVQSGAEVKKPGASVKVSCKVSGYTLTELSIHWVRQAPGKGLEWMGGFDPEDGETIYAQKFQGRVTMTGDTSTDTAYLELSSLRSEDTALYYCATGRYTSLATTYGFDYWGQGTLVTVSS VL: EIVMTQSPATLSLSPGERATLSCRASQQVSSYLAWYQQKPGQAPRLLIYGASSRATGIPDRFSGSGSGTDFTLTISRLEPEDFAVYYCQQYDNWPYTFGQGTKLEIK
0.082 | E35-scFv LS28K (scFv, V domains shown) VH: QMQLVQSGAEVKKPGASVKVSCKVSGYTLTELSIHWVRQAPGKGLEWMGGFDPEDGETIYAQKFQGRVTMTGDTSTDTAYLELSSLRSEDTALYYCATGRYTSLATTYGFDYWGQGTLVTVSS VL: EIVMTQSPATLSLSPGERATLSCRASQKVSSYLAWYQQKPGQAPRLLIYGASSRATGIPDRFSGSGSGTDFTLTISRLEPEDFAVYYCQQYDNWPYTFGQGTKLEIK
0.279 | E35-scFv LS31G (scFv, V domains shown) VH: QMQLVQSGAEVKKPGASVKVSCKVSGYTLTELSIHWVRQAPGKGLEWMGGFDPEDGETIYAQKFQGRVTMTGDTSTDTAYLELSSLRSEDTALYYCATGRYTSLATTYGFDYWGQGTLVTVSS VL: EIVMTQSPATLSLSPGERATLSCRASQSVSGYLAWYQQKPGQAPRLLIYGASSRATGIPDRFSGSGSGTDFTLTISRLEPEDFAVYYCQQYDNWPYTFGQGTKLEIK
0.091 | E35-scFv LS28I (scFv, V domains shown) VH: QMQLVQSGAEVKKPGASVKVSCKVSGYTLTELSIHWVRQAPGKGLEWMGGFDPEDGETIYAQKFQGRVTMTGDTSTDTAYLELSSLRSEDTALYYCATGRYTSLATTYGFDYWGQGTLVTVSS VL: EIVMTQSPATLSLSPGERATLSCRASQIVSSYLAWYQQKPGQAPRLLIYGASSRATGIPDRFSGSGSGTDFTLTISRLEPEDFAVYYCQQYDNWPYTFGQGTKLEIK
0.058 | E35-scFv LS28H (scFv, V domains shown) VH: QMQLVQSGAEVKKPGASVKVSCKVSGYTLTELSIHWVRQAPGKGLEWMGGFDPEDGETIYAQKFQGRVTMTGDTSTDTAYLELSSLRSEDTALYYCATGRYTSLATTYGFDYWGQGTLVTVSS VL: EIVMTQSPATLSLSPGERATLSCRASQHVSSYLAWYQQKPGQAPRLLIYGASSRATGIPDRFSGSGSGTDFTLTISRLEPEDFAVYYCQQYDNWPYTFGQGTKLEIK
0.06 | E35-scFv LS28W (scFv, V domains shown) VH: QMQLVQSGAEVKKPGASVKVSCKVSGYTLTELSIHWVRQAPGKGLEWMGGFDPEDGETIYAQKFQGRVTMTGDTSTDTAYLELSSLRSEDTALYYCATGRYTSLATTYGFDYWGQGTLVTVSS VL: EIVMTQSPATLSLSPGERATLSCRASQWVSSYLAWYQQKPGQAPRLLIYGASSRATGIPDRFSGSGSGTDFTLTISRLEPEDFAVYYCQQYDNWPYTFGQGTKLEIK
0.104 | E35-scFv LS28V (scFv, V domains shown) VH: QMQLVQSGAEVKKPGASVKVSCKVSGYTLTELSIHWVRQAPGKGLEWMGGFDPEDGETIYAQKFQGRVTMTGDTSTDTAYLELSSLRSEDTALYYCATGRYTSLATTYGFDYWGQGTLVTVSS VL: EIVMTQSPATLSLSPGERATLSCRASQVVSSYLAWYQQKPGQAPRLLIYGASSRATGIPDRFSGSGSGTDFTLTISRLEPEDFAVYYCQQYDNWPYTFGQGTKLEIK
0.077 | E35-scFv LS28R (scFv, V domains shown) VH: QMQLVQSGAEVKKPGASVKVSCKVSGYTLTELSIHWVRQAPGKGLEWMGGFDPEDGETIYAQKFQGRVTMTGDTSTDTAYLELSSLRSEDTALYYCATGRYTSLATTYGFDYWGQGTLVTVSS VL: EIVMTQSPATLSLSPGERATLSCRASQRVSSYLAWYQQKPGQAPRLLIYGASSRATGIPDRFSGSGSGTDFTLTISRLEPEDFAVYYCQQYDNWPYTFGQGTKLEIK
0.12 | E35-scFv (scFv, V domains shown) VH: QMQLVQSGAEVKKPGASVKVSCKVSGYTLTELSIHWVRQAPGKGLEWMGGFDPEDGETIYAQKFQGRVTMTGDTSTDTAYLELSSLRSEDTALYYCATGRYTSLATTYGFDYWGQGTLVTVSS VL: EIVMTQSPATLSLSPGERATLSCRASQSVSSYLAWYQQKPGQAPRLLIYGASSRATGIPDRFSGSGSGTDFTLTISRLEPEDFAVYYCQQYDNWPYTFGQGTKLEIK
